From article PMC11303406 come the findings set out here.

Data set [1] relates to SlSWIBb (Solanum lycopersicum). Put plainly: MST. The conditions noted are these: MST: 50 mM Tris-HCl pH 8.0, 150 mM NaCl, 0.05% Tween-20, 25 C.
Data set [2] concerns SlSWIBb-K86A (Solanum lycopersicum). As to the kind of experiment: MST. The conditions noted are these: MST: 50 mM Tris-HCl pH 8.0, 150 mM NaCl, 0.05% Tween-20, 25 C.
The subject of data set [3] is SlSWIBb-L44A (Solanum lycopersicum). As to the kind of experiment: MST. The conditions noted are these: MST: 50 mM Tris-HCl pH 8.0, 150 mM NaCl, 0.05% Tween-20, 25 C.
Data set [4] deals with SlSWIBb-R6A (Solanum lycopersicum). As to the kind of experiment: MST. The settings on record: MST: 50 mM Tris-HCl pH 8.0, 150 mM NaCl, 0.05% Tween-20, 25 C.
The target of another data set is SlSWIBa (Solanum lycopersicum, UniProt A0A3Q7HR54 1-124). Put plainly: EMSA. Background: In EMSA bound probe runs differently from free probe, usually more slowly.
The target in the next data set is T1, SlGATA29 (Solanum lycopersicum, UniProt UPI0002BCBC7B 34-326).
T1 sequence: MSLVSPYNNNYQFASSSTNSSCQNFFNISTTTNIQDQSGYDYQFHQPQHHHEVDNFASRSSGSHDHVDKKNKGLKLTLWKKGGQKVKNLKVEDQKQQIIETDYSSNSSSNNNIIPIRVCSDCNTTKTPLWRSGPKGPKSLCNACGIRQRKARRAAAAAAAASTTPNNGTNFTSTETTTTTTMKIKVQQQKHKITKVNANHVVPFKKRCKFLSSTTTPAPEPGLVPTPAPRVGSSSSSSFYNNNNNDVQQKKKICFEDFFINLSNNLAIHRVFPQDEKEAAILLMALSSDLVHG
Put plainly: EMSA.

A further data set addresses SlSWIBa-allmut (Solanum lycopersicum, UniProt A0A3Q7HR54 1-124, R6A;L46A;K88A). Put plainly: MST.

For “GAATATATGAACATATTAAAAGTGACATTATAAGAAATGATAAAATTCAAAATTAAGGTG (double strand) [60bp InDel, Cy5]”, the Kd (commonly the free concentration of one partner at which half of the binding sites on the other are occupied at equilibrium, for simple one-to-one binding) was 35 nM in data set [1], 42 nM in data set [2], 47 nM in data set [3] and 40 nM in data set [4].

B1: 30bpSWIB-mu4 (dsDNA)
DNA 1: TAAGAAATGATAAAATTCAAAATTAAGGTG
DNA 2: CACCTTAATTTTGAATTTTATCATTTCTTA
On to B1, for which the binding result with SlSWIBa was “no binding”.

B2: probe-60bp (dsDNA)
DNA 1: GAATATATGAACATATTAAAAGTGACATTATAAGAAATGATAAAATTCAAAATTAAGGTG
DNA 2: CACCTTAATTTTGAATTTTATCATTTCTTATAATGTCACTTTTAATATGTTCATATATTC
Take B2: the binding result in the data set with SlGATA29 is listed as “binds”.

B3: 60bp InDel, Cy5 (dsDNA)
DNA 1: GAATATATGAACATATTAAAAGTGACATTATAAGAAATGATAAAATTCAAAATTAAGGTG
DNA 2: CACCTTAATTTTGAATTTTATCATTTCTTATAATGTCACTTTTAATATGTTCATATATTC
Take B3: the binding result with SlSWIBa-allmut is reported as “no binding”.
